According to IntAct's records for PubMed 19345194:

B1: Homer protein homolog 1 (Rattus norvegicus (Rat)), Q9Z214-2 (parent)
chain: MGEQPIFSTRAHVFQIDPNTKKNWVPTSKHAVTVSYFYDSTRNVYRIISLDGSKAIINSTITPNMTFTKTSQKFGQWADSRANTVYGLGFSSEHHLSKFAEKFQEFKEAARLAKEKSQEKMELTSTPSQESAGGDLQSPLTPESINGTDDERTPDVTQNSEPRAEPAQNALPFSHSSAISKHWEAELATLKGNNAKLTAALLESTANVKQWKQQLAAYQEEAERLHKRVTELECVSSQANAVHSHKTELSQTVQELEETLKVKEEEIERLKQEIDNARELQEQRDSLTQKLQEVEIRNKDLEGQLSELEQRLEKSQSEQDAFRSNLKTLLEILDGKIFELTELRDNLAKLLECS

Variants of: B1
Settings: with shan1_rat Shank1, Q9WV48
Chain of shan1_rat Shank1, Q9WV48 (Q9WV48 whole entry): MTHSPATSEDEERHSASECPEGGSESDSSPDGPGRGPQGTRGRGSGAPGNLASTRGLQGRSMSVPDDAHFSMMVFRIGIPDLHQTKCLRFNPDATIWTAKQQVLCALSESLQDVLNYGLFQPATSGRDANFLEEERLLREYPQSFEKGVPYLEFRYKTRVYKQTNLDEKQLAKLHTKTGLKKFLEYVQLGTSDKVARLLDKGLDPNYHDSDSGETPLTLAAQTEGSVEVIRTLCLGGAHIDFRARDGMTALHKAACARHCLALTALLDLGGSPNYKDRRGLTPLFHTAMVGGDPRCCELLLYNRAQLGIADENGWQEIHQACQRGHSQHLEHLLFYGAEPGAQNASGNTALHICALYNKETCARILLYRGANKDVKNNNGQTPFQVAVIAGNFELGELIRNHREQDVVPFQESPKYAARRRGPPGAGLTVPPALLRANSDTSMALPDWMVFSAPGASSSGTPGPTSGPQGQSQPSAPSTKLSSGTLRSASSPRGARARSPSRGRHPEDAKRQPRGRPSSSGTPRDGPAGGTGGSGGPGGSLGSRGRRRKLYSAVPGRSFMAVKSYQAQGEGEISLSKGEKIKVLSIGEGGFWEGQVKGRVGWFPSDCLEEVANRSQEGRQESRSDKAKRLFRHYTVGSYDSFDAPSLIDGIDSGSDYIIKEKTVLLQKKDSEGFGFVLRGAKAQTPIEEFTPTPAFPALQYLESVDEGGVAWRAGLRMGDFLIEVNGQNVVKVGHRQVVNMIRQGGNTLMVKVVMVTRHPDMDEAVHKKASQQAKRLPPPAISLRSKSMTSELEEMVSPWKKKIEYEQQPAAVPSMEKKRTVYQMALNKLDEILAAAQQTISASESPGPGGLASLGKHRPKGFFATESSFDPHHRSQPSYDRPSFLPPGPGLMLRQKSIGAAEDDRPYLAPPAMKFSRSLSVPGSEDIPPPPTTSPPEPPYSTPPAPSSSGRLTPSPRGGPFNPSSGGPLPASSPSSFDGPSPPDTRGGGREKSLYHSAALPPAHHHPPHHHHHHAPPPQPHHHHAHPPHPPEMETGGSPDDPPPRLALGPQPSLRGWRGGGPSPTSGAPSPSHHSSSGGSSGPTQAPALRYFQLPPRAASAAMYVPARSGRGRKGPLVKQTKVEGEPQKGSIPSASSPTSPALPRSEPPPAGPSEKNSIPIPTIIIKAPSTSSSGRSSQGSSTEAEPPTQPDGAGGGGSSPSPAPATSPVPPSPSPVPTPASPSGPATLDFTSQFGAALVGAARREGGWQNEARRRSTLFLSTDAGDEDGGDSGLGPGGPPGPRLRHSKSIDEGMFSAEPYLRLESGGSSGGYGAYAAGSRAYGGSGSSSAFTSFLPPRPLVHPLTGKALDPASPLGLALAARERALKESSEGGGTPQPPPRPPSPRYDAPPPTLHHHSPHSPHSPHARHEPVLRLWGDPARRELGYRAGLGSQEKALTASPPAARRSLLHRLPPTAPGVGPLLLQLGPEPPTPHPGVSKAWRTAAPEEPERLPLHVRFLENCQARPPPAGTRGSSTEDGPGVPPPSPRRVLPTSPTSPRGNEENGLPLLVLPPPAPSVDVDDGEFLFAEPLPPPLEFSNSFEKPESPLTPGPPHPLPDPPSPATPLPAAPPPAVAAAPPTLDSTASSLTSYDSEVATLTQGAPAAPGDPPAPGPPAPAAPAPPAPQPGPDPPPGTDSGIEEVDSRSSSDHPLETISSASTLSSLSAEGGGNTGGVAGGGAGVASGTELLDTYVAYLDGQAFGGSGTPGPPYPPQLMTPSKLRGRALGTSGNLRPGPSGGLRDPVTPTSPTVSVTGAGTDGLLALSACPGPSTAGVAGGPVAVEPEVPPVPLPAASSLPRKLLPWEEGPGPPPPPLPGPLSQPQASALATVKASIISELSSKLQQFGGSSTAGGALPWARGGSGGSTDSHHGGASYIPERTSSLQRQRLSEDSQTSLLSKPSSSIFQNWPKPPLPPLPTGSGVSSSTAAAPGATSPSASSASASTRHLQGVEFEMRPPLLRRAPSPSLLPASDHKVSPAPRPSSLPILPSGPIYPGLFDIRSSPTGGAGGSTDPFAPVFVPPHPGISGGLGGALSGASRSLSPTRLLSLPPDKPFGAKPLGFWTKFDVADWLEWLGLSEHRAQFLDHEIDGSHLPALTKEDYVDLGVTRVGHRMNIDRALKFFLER

| Variant | effect of a mutation on the interaction |
| --- | --- |
| MGEQPIFSTRAHVFQIDPNTKKNAVPTSKHAVTVSYFYDSTRNVYRIISLDGSKAIINSTITPNMTFTKTSQKFGQWADSRANTVYGLGFSSEHHLSKFAEKFQEFKEAARLAKEKSQEKMELTSTPSQESAGGDLQSPLTPESINGTDDERTPDVTQNSEPRAEPAQNALPFSHSSAISKHWEAELATLKGNNAKLTAALLESTANVKQWKQQLAAYQEEAERLHKRVTELECVSSQANAVHSHKTELSQTVQELEETLKVKEEEIERLKQEIDNARELQEQRDSLTQKLQEVEIRNKDLEGQLSELEQRLEKSQSEQDAFRSNLKTLLEILDGKIFELTELRDNLAKLLECS [W24A] | decreasing interaction |
